{"source": "paper PMC2572730", "about": "“Structural Basis for the Recognition of Histone H4 by the Histone-Chaperone RbAp46” (Structure(London, England:1993), 2008)", "key": {"RbAp46 [1]": {"biological_target": "T1, RbAp46 (Homo sapiens, UniProt Q16576)", "T1 construct": "His-tag (cleaved yes); made in house; host or cells: insect cells (baculovirus)", "assay": "BS3 chemical crosslinking with RbAp46", "assay_type": "binding", "details": "BS3 crosslinker; 1.1 M NaCl, 20 mM HEPES pH 7.5, 10 mM DTT; ∼10 μM protein; room temperature 30 min; NuPAGE, Coomassie and anti-H3/anti-H4 immunoblot", "from_the_text": "Figure 4 Interaction of Histones H3 and H4 with RbAp46 (A) Comparison of chemical crosslinking of histones H3 and H4 in the absence and presence of RbAp46. Three different 4%–12% NuPAGE gels were either (i) stained with Coomasie blue or blotted with (ii) anti-histone H4 or (iii) anti-histone H3 antibodies. By themselves, histones H3 and H4 appear to form a H3/H4 heterodimer (∼25 kDa), an H3_2 homodimer (∼30 kDa), and an H3_2/H4_2 heterotetramer (∼50 kDa), indicated by arrowheads. In the presence of RbAp46, two bands, which both contain histones H3 and H4 (also indicated by arrowheads), can be seen in positions roughly corresponding to the interaction of RbAp46 with histone H3/H4 dimers and tetramers (∼65–75 kDa). […] The fractions were collected and analyzed on 4%–12% NuPAGE gels.\nRbAp46/H3/H4 crosslinking was performed by using the BS^3 crosslinker (Pierce) in 1.1 M NaCl, 20 mM HEPES (pH 7.5), and 10 mM DTT. Freshly prepared BS^3 stock solution, 3% (w/v), was diluted 1/5, 1/10, 1/20, 1/50, and 1/100 with distilled water, and 1 μl of the resulting solution was mixed with 10 μl of ∼10 μM RbAp46, recombinant histone H3/H4, or RbAp46/H3/H4 prior to incubation at room temperature for 30 min. […] The proteins were analyzed on separate 4%–12% NuPAGE gels, one for Coomassie blue staining and one for each Western blot with either anti-histone H3 (Abcam) or anti-histone H4 (A.V.) antibodies."}, "RbAp46 or RbAp48": {"tested_on": "RbAp46 or RbAp48", "details": "ref Verreault et al., 1998; cited from earlier work"}, "RbAp46 [2]": {"biological_target": "T1, RbAp46", "assay": "Reciprocal pull-down of 35S-labeled RbAp46 with GST-histone H4 (1–48) mutants", "assay_type": "binding", "details": "autoradiogram, 300 mM NaCl, 20 mM Tris pH 8.0, 5 mM DTT, 0.1% (v/v) NP-40", "from_the_text": "Figure 2 Histone H4 Recognition by the RbAp46-Binding Pocket (A) Electrostatic surface potential of RbAp46 contoured and color coded at −91 kT (red) and +91 kT (blue). […] The histone H4 peptide is shown as a stick model. The histone H4-binding pocket in RbAp46 is mainly formed by the negatively charged PP loop (which terminates in Pro-362 and Pro-363) and a hydrophobic surface on the N-terminal α helix (helix 1). The interaction of histone H4 residues (Gln-27, Lys-31, Ile-34, Arg-35, Arg-36, Leu-37, Arg-39, and Arg-40) is shown. (B) Detailed view showing the interactions of the hydrophobic Ile-34 and Leu-37 histone H4 residues with Phe-29 and Leu-30 in helix 1 of RbAp46, as well as the positively charged Arg-36, Arg-39, and Arg-40 histone H4 residues with the backbone carbonyl groups in the PP loop and a cluster of acidic residues (Glu-356, Asp-357, and Asp-360) in RbAp46. […] In each experiment, the input lane contains 30% of the ^35S-labeled RbAp46 protein used in each of the pull-down assays. The experiments were carried out in 300 mM NaCl, 20 mM Tris (pH 8.0), 5 mM DTT, and 0.1% (v/v) NP-40.\nRecombinant histone H4 and RbAp46 proteins were expressed and purified as described previously ([Verreault et al., 1998; Berger et al., 2004]). Detailed procedures for the generation of the RbAp46/histone H4 peptide and recombinant histone H4 complexes can be found in the Supplemental Data. Recombinant full-length (Xenopus lavis) histones H3 and H4 were expressed, purified, and refolded as described ([Luger et al., 1997]). For the binding experiments, histones H3/H4 and lysozyme (Sigma) were crosslinked to DynaBeads (Dynal Biotech) according to the manufacturer's recommendations. RbAp46 and histone H4 mutants were generated by using the QuikChange Site-Directed Mutagenesis kit (Stratagene). The RbAp46 mutants were expressed by using a Rabbit Reticulocyte Cell Free system (Promega)."}}, "data": [{"substance": "lysozyme: positively charged lysozyme protein (Sigma), negative control", "values": [{"measurement": "Crosslinked species with RbAp46", "setting": "RbAp46 [1]", "result": "no crosslinked species"}]}, {"substance": "residues 15–41 of histone H4: residues 15–41 of histone H4, sufficient for recognition by RbAp46 or RbAp48 (earlier studies)", "values": [{"measurement": "Recognition by RbAp46 or RbAp48", "setting": "RbAp46 or RbAp48", "result": "sufficient for recognition by either RbAp46 or RbAp48"}]}, {"substance": "L37D + R39V + R40N: GST-histone H4 (1–48) mutated in residues interacting with both helix 1 and the charged PP loop", "values": [{"measurement": "Effect of histone H4 mutation on binding to RbAp46", "setting": "RbAp46 [2]", "result": "disrupt the binding"}]}, {"substance": "I34T + L37D + R35S: GST-histone H4 (1–48) mutated in residues interacting with both helix 1 and the charged PP loop", "values": [{"measurement": "Effect of histone H4 mutation on binding to RbAp46", "setting": "RbAp46 [2]", "result": "disrupt the binding"}]}, {"substance": "R39V + R40N: GST-histone H4 (1–48) mutated in residues interacting with the charged PP loop", "values": [{"measurement": "Effect of histone H4 mutation on binding to RbAp46", "setting": "RbAp46 [2]", "result": "disrupt the binding"}]}]}
